Measured values published in paper PMC10347550, “Cyclic Ruthenium-Peptide Conjugates as Integrin-Targeting Phototherapeutic Prodrugs for the Treatment of Brain Tumors” (Journal of the American Chemical Society, 2023).

What was measured:
[1] = Octanol-water partition coefficient (log P); type: physicochemical; settings: shake-flask, octanol-saturated water / water-saturated octanol, shaken 24 h in the dark, room temperature; Ru in water phase by ICP-MS; ± SD from 4 concentration points
Procedure: Each complex was first dissolved in octanol-saturated water (0.5 mM, 500 μL) and centrifuged (2000 rpm, 5 min) to isolate the undissolved solid. 450 μL of the supernatant was taken out as the stock solution; after that, 5, 10, 50, 100, and 150 μL of solution were added to the 15 mL tube, and more octanol-saturated water was added to adjust the final volume to 1 mL. 1 mL of water-saturated octanol was added further, and the tubes were mildly shaken (Gesellschaft für Labortechnik mbH, type3016) for 24 h under dark conditions. After that, the solutions were centrifuged for 5 min at 2000 rpm at room temperature, and 0.5 mL of the water phase (below phase) was moved to a 15 mL centrifuge tube by an Eppendorf pipette. Then, 0.1 mL of 65% HNO3 was added into the tube using an organic pipette gun, and each solution was shaken for 1 h. 9.9 mL of MilliQ water was added into each tube, making a total volume of 10 mL. To detect the Ru content of the stock solution, 10 μL of each stock solution was mixed with 0.490 mL of 65% HNO3, and the mixture was shaken for 1 h. Then, […] of MilliQ water was added to the tube, making a total volume of 10 mL. ICP-MS measurement was performed using a NexION 2000 from PerkinElmer. The ruthenium content in each well was obtained in ppb. The partition coefficients (log P) were calculated using the following eq 3 [drawing 3] 3
where [complex]total is the concentration of the complex in the control sample (where no water-saturated octanol was added) and [complex]water is the concentration of the complex in the aqueous layer.

[2] = tested on: ITGAV knockdown U87MG cells (U87MG-kd); test: Cellular Ru uptake by ICP-MS, 2 h; type: cell-based, human; settings: 10 μM, dark, normoxia, n = 3
Procedure: (§1) The uptake studies in U87MG and U87MG-kd cell lines were conducted as follows: 2 × 10^5 cells were cultured in 6-well plates for 24 h in Opti-MEM (2 mL), after which cells were incubated with Δ-[1]Cl2 or Δ-[3]Cl2 (10 μM) for 2 h, washed with cold PBS twice, harvested, concentrated in 200 μL of PBS, and counted using trypan blue and a cell counter (Bio-Rad). Finally, cell pellets were collected in 1.5 mL Eppendorf tubes after removing additional PBS by centrifuging at 500g; 0.25 mL of 65% HNO3 was then added to each tube, and all tubes were kept at room temperature (RT) overnight. The cell lysates were transferred to 15 mL centrifuge tubes (Biologix) and filled with 4.75 mL of MilliQ H2O.
(§2) The ruthenium concentration was measured in each sample by ICP-MS (NexION 2000, PerkinElmer), providing the metal content in each well in ppb. Combining the cell numbers and Ru uptake, averaging over technical triplicates, the ruthenium uptake values were finally expressed in μg Ru/million cells.

[3] = tested on: wild-type U87MG cells (U87MG-wt); test: Cellular Ru uptake by ICP-MS, 2 h; type: cell-based, human; settings: 10 μM, dark, normoxia, n = 3
Procedure: as §1, §2

[4] = target: T1, integrin αIIbβ3 (Homo sapiens, UniProt P05106+P08514); settings: literature values; read-out: Kd for the same integrin heterodimers (αIIbβ3); cited from earlier work
T1 construct: Purified human platelet glycoprotein integrin αIIbβ3; purchased Enzyme Research Laboratories GP2b3a; host or cells: human platelets (natural source)
Procedure: Since the ruthenium complexes were designed to target integrins, their interaction with the protein should be a key process for recognition, uptake, and toxicity. To check whether the ruthenium-coordinated peptide still retained the interaction binding affinity with the targeted integrin, the association constant (Ka) of both isomers of [1]Cl2 to integrin αIIbβ3 was measured using luminescence spectroscopy. In this assay, the emission intensity from aromatic residues (tryptophan, tyrosine, and phenylalanine) in integrin αIIbβ3 (λemi = 345 nm) was monitored upon the addition of different concen ...

## [Ru(Ph2phen)2(κ^S,κ^N-Ac-MRADH-NH2)]Cl2 (sidechain bridge or staple) [Δ-[3]Cl2, Gly-Ala analogue of [1]Cl2]
[1]
  log P (octanol-water partition coefficient): 0.02 ± 0.05
[2]
  uptake amount compared to U87MG-wt cells: taken up in similar amounts
[3]
  cellular uptake compared to Δ-[1]Cl2: significantly lower

## fibrinogen
[4]
  Kd: 30 nM
